Measurements as given in the RNAGym collection of RNA variant scans (doi:10.1101/gr.219683.116).

B1: mRNA-splicing (parent)
chain: AGUUGCUGCUGGGAGCUCCAGCACAGUGAAAUGGACAGAAGGGCAGAGCAA

Variants of: B1
Test: exon inclusion enrichment index; higher = more inclusion; WT1 exon 5 minigene, HEK293

Variant	exon inclusion enrichment index
G5C C6U G8C C9U U10C G12U G13C	0.698
U3C U4G G5A C6U U7A G8U C9A	0.312
G5C C6A U7C G8A U10A G34C	0.0202
G5C C6U G8C C9U U10C A37G G38A	1.79
C36G	0.0745
C6A U7A C9A U10A A29G A30U	0.163
C6A U7A C9A U10A A29G A30C	0.273
G5A C6U G8U C9A	0.038
G5U G8U C9U C22A	0.117
G5U G8U C9U C22U	0.095
C18A	1.5
C22U A23C	1.24
G5A C6G U7G C9A G12A G13A	0.00149
G5A C6G U7G C9A G12A G13U	0.00417
G5A U7C G8A C9A U10C	2
G5C C6A U7C G8A U10A G33A G34A	0.00429
G2U C6A U7A C9A U10A	1.36
G5A U7A U10C	1.84
U4A G5A C6A U7C G8A U10A	0.0681
G5A C6U U7A G8U C9A A40G	0.0627
C6U U7C G8A U10C	2.38

Variant	exon inclusion enrichment index
G5A U7C G8A U10C U27C G28C	2.7
G5U G8U C9U G33A	0.00649
G5C C6G U7C U10C C18A C19U	0.321
C6A U7C C9A U10C A45U G46U	1.75
G5A C6U U7A G8U C9A A47U	0.0348
C6A U7A C9A U10A G11U G12A	0.701
G5C C6G U7C U10C G26A	4.41
G5U G8U C9U A14G G15C	0.0571
G5A C6U U7A G8U C9A C44U	0.00684
G5A C6U U7A G8U C9A C44G	0.115
G12C G13A	1.1
U4A G5A U7C G8A U10C	2
G5C C6U G8C C9U U10C G38A A39C	1.48
G5C C6U G8C C9U U10C G38A A39U	0.134
G5A U7C G8A U10C A39G A40G	0.26
C6A U7C C9A U10C G41U G42A	1.6
G5C C6G U7C U10C G41U G42U	2.79
G5A C6U U7A G8U C9A G46A A47G	0.0237
G5A C6U U7A G8U C9A G46A A47C	0.232
G5C C6G U7C U10C A47G G48U	0.733
G5A C6G U7G C9A G38C	0.000603

Variant	exon inclusion enrichment index
G5C C6G U7C U10C A25C	4.98
G8A C9U	0.355
C6A U7C C9A U10C G21A	3.08
G5C C6U G8C C9U U10C C19G A20C	1.8
G5U G8U C9U G38A A39C	0.0724
G43A C44A	0.778
C6A U7A G8A C9A U10A	0.207
G5C C6A U7C G8A U10G G11U	1.69
G5A C6U U7A G8U C9A C36A A37G	0.0248
G5A U7C G8A U10C A25U G26U	1.75
C6A C9A U10C	2.01
G5C C6G U7C U10C C22U	3.4
G41C G42A	0.238
G5U G8U C9U C18U C19G	0.0199
G5U G8U C9U C18U C19A	0.00338
G5A C6G U7G C9A A23C C24G	0.0142
G5A C6U U7A G8U C9A G12U G13U	0.00049
G2A G5C C6G U7C U10C	3.98
U17G C18U	1.5
C6A U7C C9A U10C G11C G12C	2.59
G5A C6U U7A G8U C9A A23U C24A	0.0228

Variant	exon inclusion enrichment index
G5A C6G U7G C9A C44G A45G	0.00929
G5A U7C G8A U10C A14G G15C	1.06
G5A U7C G8A U10C A14G G15A	1.8
G5C C6A U7C G8A U10A C36G A37C	0.0273
G5C C6A U7C G8A U10A A45C	0.18
U3C U4G C6A U7C C9A U10C	2.89
G8U	1.2
G11U G12U	0.755
A31G	0.255
G5C C6U G8C C9U U10C U32C G33U	1.28
G5A C6G U7G C9A U17C C18U	0.00126
G5A U7C G8A U10C A37U G38U	0.601
G5A U7C G8A U10C A37U G38C	1.52
G5A C6G U7G C9A A29U A30C	0.000854
C6A U7C C9A U10C A35G C36G	0.776
G5C C6A U7C G8A U10A A20U G21A	0.0323
G5C C6A U7C G8A U10A G26A U27A	0.131
G5C C6A U7C G8A U10A G48A	0.25
C6A G8C C9A U10A	0.392
G5C C6A U7C G8A U10A C18U C19A	0.00114
